In the experiment the target is HA-NanoLuc-VAMP2 (UniProt P63027). In words: cell-based or functional assay.
Chain of UniProt P63027 (P63027 1-116, tags or fused parts left off): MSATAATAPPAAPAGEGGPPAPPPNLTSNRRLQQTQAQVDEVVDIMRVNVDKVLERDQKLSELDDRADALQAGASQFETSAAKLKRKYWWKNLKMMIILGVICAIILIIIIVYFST

Substance “botulinum neurotoxin type B (from UniProt P10844 2-1291) (enzyme)” returned a cleavage of the reporter in SiMa cells, immunoblot with total VAMP2 antibody of 10 nM.

Source of the values: US20200024639A1.
